The target in this assay is T1, SidJ^[change] (SidJ 59–851) (L. pneumophila, UniProt Q5ZTK6 59-851).
T1 sequence: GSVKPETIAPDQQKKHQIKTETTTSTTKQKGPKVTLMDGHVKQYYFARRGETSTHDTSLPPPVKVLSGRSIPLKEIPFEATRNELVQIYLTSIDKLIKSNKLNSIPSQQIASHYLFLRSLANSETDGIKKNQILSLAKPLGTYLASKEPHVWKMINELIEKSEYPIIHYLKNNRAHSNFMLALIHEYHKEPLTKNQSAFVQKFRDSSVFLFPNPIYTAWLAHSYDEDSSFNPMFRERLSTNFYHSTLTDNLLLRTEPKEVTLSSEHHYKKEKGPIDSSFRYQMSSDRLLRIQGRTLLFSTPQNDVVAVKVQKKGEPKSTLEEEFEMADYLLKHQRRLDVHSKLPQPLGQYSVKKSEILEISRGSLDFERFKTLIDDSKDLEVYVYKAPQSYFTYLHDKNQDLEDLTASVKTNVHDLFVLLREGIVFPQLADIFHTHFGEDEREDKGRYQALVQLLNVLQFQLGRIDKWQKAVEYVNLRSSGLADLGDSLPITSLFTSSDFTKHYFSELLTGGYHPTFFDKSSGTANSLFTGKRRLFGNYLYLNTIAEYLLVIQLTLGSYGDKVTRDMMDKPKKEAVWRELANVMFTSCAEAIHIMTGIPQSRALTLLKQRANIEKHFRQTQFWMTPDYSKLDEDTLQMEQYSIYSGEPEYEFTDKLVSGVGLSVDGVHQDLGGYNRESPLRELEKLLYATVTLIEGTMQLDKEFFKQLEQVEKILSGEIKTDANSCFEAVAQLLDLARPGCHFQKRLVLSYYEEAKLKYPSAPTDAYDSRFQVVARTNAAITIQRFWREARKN
As to the kind of experiment: crystal structure.

B1: yeast CaM (yCaM) (natural protein)
chain: not shown
B1: the binding result is listed as “binds”.

Values taken from paper PMC6767918 (Science (New York, N.Y.), 2019).
